In IntAct's records for PubMed 32296183:

B1: Catenin alpha-3 (Homo sapiens), Q9UI47-2 (parent)
chain: MSAETPITLNIDPQDLQVQTFTVEKLLEPLIIQVTTLVNCPQNPSSRKKGRSKRASVLLASVEEATWNLLDKGEKIAQEATVLKDELTASLEEVRKESEALKVSAERFTDDPCFLPKREAVVQAARALLAAVTRLLILADMIDVMCLLQHVSAFQRTFESLKNVANKSDLQKTYQKLGKELENLDYLAFKRQQDLKSPNQRDEIAGARASLKENSPLLHSICSACLEHSDVASLKASKDTVCEEIQNALNVISNASQGIQNMTTPPEPQAATLGSALDELENLIVLNPLTVTEEEIRPSLEKRLEAIISGAALLADSSCTRDLHRERIIAECNAIRQALQDLLSEYMNNAGKKERSNTLNIALDNMCKKTRDLRRQLRKAIIDHVSDSFLDTTVPLLVLIEAAKNGREKEIKEYAAIFHEHTSRLVEVANLACSMSTNEDGIKIVKIAANHLETLCPQIINAALALAARPKSQAVKNTMEMYKRTWENHIHVLTEAVDDITSIDDFLAVSGMFLFF
partner: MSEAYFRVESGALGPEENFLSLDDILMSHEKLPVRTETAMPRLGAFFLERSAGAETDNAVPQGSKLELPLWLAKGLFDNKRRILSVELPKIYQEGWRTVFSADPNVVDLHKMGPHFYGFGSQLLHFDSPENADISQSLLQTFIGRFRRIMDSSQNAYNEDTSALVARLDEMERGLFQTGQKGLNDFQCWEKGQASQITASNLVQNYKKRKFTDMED
B2: Catenin alpha-3 (Homo sapiens), Q9UI47-2 (parent)
chain: B1 chain
partner: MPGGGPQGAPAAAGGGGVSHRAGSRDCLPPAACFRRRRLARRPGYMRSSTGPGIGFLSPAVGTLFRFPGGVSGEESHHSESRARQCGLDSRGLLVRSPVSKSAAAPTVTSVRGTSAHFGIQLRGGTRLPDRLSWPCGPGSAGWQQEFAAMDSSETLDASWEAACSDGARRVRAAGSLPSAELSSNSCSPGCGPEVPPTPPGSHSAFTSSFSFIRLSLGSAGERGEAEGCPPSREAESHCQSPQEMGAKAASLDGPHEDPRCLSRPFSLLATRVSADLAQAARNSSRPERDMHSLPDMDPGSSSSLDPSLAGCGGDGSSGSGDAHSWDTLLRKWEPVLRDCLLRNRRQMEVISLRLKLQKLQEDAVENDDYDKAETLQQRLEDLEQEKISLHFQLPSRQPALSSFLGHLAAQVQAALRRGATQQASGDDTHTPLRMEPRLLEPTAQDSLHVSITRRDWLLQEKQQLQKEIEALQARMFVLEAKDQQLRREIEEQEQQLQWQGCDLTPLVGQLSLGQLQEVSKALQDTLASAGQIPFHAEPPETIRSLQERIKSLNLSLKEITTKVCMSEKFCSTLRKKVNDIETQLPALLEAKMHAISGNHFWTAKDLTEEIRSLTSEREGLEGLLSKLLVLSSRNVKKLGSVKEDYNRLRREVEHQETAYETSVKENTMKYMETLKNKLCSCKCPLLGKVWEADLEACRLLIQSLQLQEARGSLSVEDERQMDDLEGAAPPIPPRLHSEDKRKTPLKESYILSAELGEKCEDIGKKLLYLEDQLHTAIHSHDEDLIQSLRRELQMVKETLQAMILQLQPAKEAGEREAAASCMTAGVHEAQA
B3: Ceroid-lipofuscinosis neuronal protein 6 (Homo sapiens), Q9NWW5 (parent)
chain: MEATRRRQHLGATGGPGAQLGASFLQARHGSVSADEAARTAPFHLDLWFYFTLQNWVLDFGRPIAMLVFPLEWFPLNKPSVGDYFHMAYNVITPFLLLKLIERSPRTLPRSITYVSIIIFIMGASIHLVGDSVNHRLLFSGYQHHLSVRENPIIKNLKPETLIDSFELLYYYDEYLGHCMWYIPFFLILFMYFSGCFTASKAESLIPGPALLLVAPSGLYYWYLVTEGQIFILFIFTFFAMLALVLHQKRKRLFLDSNGLFLFSSFALTLLLVALWVAWLWNDPVLRKKYPGVIYVPEPWAFYTLHVSSRH
partner: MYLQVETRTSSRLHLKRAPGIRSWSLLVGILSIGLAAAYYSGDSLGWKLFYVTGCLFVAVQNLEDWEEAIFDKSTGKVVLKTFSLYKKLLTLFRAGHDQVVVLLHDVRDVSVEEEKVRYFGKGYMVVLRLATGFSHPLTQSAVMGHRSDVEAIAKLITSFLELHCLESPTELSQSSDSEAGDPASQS
B4: Golgi SNAP receptor complex member 2 (Homo sapiens), O14653 (parent)
chain: MDPLFQQTHKQVHEIQSCMGRLETADKQSVHIVENEIQASIDQIFSRLERLEILSSKEPPNKRQNARLRVDQLKYDVQHLQTALRNFQHRRHAREQQERQREELLSRTFTTNDSDTTIPMDESLQFNSSLQKVHNGMDDLILDGHNILDGLRTQRLTLKGTQKKILDIANMLGLSNTVMRLIEKRAFQDKYFMIGGMLLTCVVMFLVVQYLT
partner: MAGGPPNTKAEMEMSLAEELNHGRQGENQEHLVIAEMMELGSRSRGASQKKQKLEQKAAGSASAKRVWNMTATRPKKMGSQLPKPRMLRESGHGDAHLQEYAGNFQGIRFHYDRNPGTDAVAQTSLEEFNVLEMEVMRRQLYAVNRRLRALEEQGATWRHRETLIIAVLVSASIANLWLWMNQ
B5: Golgi SNAP receptor complex member 2 (Homo sapiens), O14653 (parent)
chain: B4 chain
partner: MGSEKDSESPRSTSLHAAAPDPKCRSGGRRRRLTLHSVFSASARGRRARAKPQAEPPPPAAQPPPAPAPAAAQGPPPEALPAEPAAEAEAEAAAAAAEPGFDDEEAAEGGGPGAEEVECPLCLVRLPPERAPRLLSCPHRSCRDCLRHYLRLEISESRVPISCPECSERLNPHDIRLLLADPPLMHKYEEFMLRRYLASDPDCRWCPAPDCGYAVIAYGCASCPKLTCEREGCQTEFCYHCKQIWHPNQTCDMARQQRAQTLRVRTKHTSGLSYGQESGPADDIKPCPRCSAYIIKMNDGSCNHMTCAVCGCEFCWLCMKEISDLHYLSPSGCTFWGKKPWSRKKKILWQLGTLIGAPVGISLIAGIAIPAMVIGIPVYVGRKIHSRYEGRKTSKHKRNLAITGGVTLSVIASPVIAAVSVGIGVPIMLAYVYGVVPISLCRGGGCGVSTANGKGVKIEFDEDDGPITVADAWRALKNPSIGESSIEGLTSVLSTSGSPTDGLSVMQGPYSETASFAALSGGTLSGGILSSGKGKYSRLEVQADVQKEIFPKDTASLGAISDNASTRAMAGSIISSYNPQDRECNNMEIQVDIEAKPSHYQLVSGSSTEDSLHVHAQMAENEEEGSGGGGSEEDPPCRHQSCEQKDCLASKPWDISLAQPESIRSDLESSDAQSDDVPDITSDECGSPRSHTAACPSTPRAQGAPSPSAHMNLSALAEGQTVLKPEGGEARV
B6: Transmembrane protein 43 (Homo sapiens), Q9BTV4 (parent)
chain: MAANYSSTSTRREHVKVKTSSQPGFLERLSETSGGMFVGLMAFLLSFYLIFTNEGRALKTATSLAEGLSLVVSPDSIHSVAPENEGRLVHIIGALRTSKLLSDPNYGVHLPAVKLRRHVEMYQWVETEESREYTEDGQVKKETRYSYNTEWRSEIINSKNFDREIGHKNPSAMAVESFMATAPFVQIGRFFLSSGLIDKVDNFKSLSLSKLEDPHVDIIRRGDFFYHSENPKYPEVGDLRVSFSYAGLSGDDPDLGPAHVVTVIARQRGDQLVPFSTKSGDTLLLLHHGDFSAEEVFHRELRSNSMKTWGLRAAGWMAMFMGLNLMTRILYTLVDWFPVFRDLVNIGLKAFAFCVATSLTLLTVAAGWLFYRPLWALLIAGLALVPILVARTRVPAKKLE
partner: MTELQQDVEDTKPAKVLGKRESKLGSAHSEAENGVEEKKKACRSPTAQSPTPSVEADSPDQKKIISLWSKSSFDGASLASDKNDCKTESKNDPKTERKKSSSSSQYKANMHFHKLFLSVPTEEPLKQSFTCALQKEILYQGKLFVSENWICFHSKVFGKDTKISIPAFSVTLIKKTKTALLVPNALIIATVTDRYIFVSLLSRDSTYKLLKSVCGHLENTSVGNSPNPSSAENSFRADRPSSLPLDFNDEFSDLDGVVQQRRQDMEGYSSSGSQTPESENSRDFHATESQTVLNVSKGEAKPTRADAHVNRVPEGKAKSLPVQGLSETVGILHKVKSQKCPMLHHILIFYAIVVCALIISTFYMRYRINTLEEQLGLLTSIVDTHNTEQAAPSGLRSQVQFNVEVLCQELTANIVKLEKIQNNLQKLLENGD

Variants of: B1
Conditions: with psf3_human GINS3, Q9BRX5

| effect of a mutation on the interaction | Variant |
| --- | --- |
| disrupting interaction strength | V94D |

Variants of: B2
Conditions: with DISC1, Q9NRI5-2

| effect of a mutation on the interaction | Variant |
| --- | --- |
| disrupting interaction strength | V94D |

Variants of: B3
Conditions: with cybc1_human CYBC1, Q9BQA9

| effect of a mutation on the interaction | Variant |
| --- | --- |
| disrupting interaction strength | G123D |
| disrupting interaction strength | L47F |
| disrupting interaction strength | R6T |

Variants of: B4
Conditions: with fate1_human FATE1, Q969F0

| effect of a mutation on the interaction | Variant |
| --- | --- |
| with no effect | G144W |

Variants of: B5
Conditions: with rn19b_human RNF19B

| effect of a mutation on the interaction | Variant |
| --- | --- |
| with no effect | G144W |

Variants of: B6
Conditions: with grm2b_human GRAMD2B

| Variant | effect of a mutation on the interaction |
| --- | --- |
| I91V | with no effect |
| E85K | with no effect |

Now from value to variant:

| effect of a mutation on the interaction | Variant |
| --- | --- |
| with no effect | Y371H |
| with no effect | E142K |
